Measurements taken from the supplement of paper PMC5998384.

Legend:
[1] = test system: HeLa Kyoto; assay: solubility change mitosis vs G1/S (difference of NP-40 vs SDS log2 ratios) (log2 ratio difference); higher = more soluble in mitosis
[2] = test system: HeLa Kyoto; assay: solubility in G1/S (NP-40 vs SDS abundance) (log2 ratio); higher = more soluble; conditions: cell cycle stage: G1/S
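Wherever solubility change mitosis vs G1/S (difference of NP-40 vs SDS log2 ratios) is given: synchronized HeLa Kyoto cells (double thymidine block for G1/S, nocodazole release for mitosis), protein amounts in NP-40 versus SDS lysates quantified by mass spectrometry, three biological replicates.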
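Wherever solubility in G1/S (NP-40 vs SDS abundance) is given: HeLa Kyoto cells arrested at G1/S by double thymidine block, proteins quantified by TMT10plex mass spectrometry in mild NP-40 versus SDS extracts, three biological replicates.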

Row | Sequence | solubility change mitosis (log2) [1] | solubility in G1/S (log2) [2]
1 | MPCVQAQYSPSPPGSSYAAQTYSSEYTTEIMNPDYTKLTMDLGSTEITATATTSLPSISTFVEGYSSNYELKPSCVYQMQRPLIKVEEGRAPSYHHHHHHHHHHHHHHQQQHQQPSIPPASSPEDEVLPSTSMYFKQSPPSTPTTPAFPPQAGALWDEALPSAPGCIAPGPLLDPPMKAVPTVAGARFPLFHFKPSPPHPPAPSPAGGHHLGYDPTAAAALSLPLGAAAAAGSQAAALESHPYGLPLAKRAAPLAFPPLGLTPSPTASSLLGESPSLPSPPSRSSSSGEGTCAVCGDNAACQHYGVRTCEGCKGFFKRTVQKNAKYVCLANKNCPVDKRRRNRCQYCRFQKCLSVGMVKEVVRTDSLKGRRGRLPSKPKSPLQQEPSQPSPPSPPICMMNALVRALTDSTPRDLDYSRYCPTDQAAAGTDAEHVQQFYNLLTASIDVSRSWAEKIPGFTDLPKEDQTLLIESAFLELFVLRLSIRSNTAEDKFVFCNGLVLHRLQCLRGFGEWLDSIKDFSLNLQSLNLDIQALACLSALSMITERHGLKEPKRVEELCNKITSSLKDHQSKGQALEPTESKVLGALVELRKICTLGLQRIFYLKLEDLVSPPSIIDKLFLDTLPF [NR4A3] | -0.0421 | -0.0603
2 | MPDNRQPRNRQPRIRSGNEPRSAPAMEPDGRGAWAHSRAALDRLEKLLRCSRCTNILREPVCLGGCEHIFCSNCVSDCIGTGCPVCYTPAWIQDLKINRQLDSMIQLCSKLRNLLHDNELSDLKEDKPRKSLFNDAGNKKNSIKMWFSPRSKKVRYVVSKASVQTQPAIKKDASAQQDSYEFVSPSPPADVSERAKKASARSGKKQKKKTLAEINQKWNLEAEKEDGEFDSKEESKQKLVSFCSQPSVISSPQINGEIDLLASGSLTESECFGSLTEVSLPLAEQIESPDTKSRNEVVTPEKVCKNYLTSKKSLPLENNGKRGHHNRLSSPISKRCRTSILSTSGDFVKQTVPSENIPLPECSSPPSCKRKVGGTSGRKNSNMSDEFISLSPGTPPSTLSSSSYRRVMSSPSAMKLLPNMAVKRNHRGETLLHIASIKGDIPSVEYLLQNGSDPNVKDHAGWTPLHEACNHGHLKVVELLLQHKALVNTTGYQNDSPLHDAAKNGHVDIVKLLLSYGASRNAVNIFGLRPVDYTDDESMKSLLLLPEKNESSSASHCSVMNTGQRRDGPLVLIGSGLSSEQQKMLSELAVILKAKKYTEFDSTVTHVVVPGDAVQSTLKCMLGILNGCWILKFEWVKACLRRKVCEQEEKYEIPEGPRRSRLNREQLLPKLFDGCYFYLWGTFKHHPKDNLIKLVTAGGGQILSRKPKPDSDVTQTINTVAYHARPDSDQRFCTQYIIYEDLCNYHPERVRQGKVWKAPSSWFIDCVMSFELLPLDS [BARD1] | 0.187 | -0.332
3 | MPGLVDSNPAPPESQEKKPLKPCCACPETKKARDACIIEKGEEHCGHLIEAHKECMRALGFKI [COX17] | 0.425 | -0.216
4 | MPIPPPPPPPPGPPPPPTFHQANTEQPKLSRDEQRGRGALLQDICKGTKLKKVTNINDRSAPILEKPKGSSGGYGSGGAALQPKGGLFQGGVLKLRPVGAKDGSENLAGKPALQIPSSRAAAPRPPVSAASGRPQDDTDSSRASLPELPRMQRPSLPDLSRPNTTSSTGMKHSSSAPPPPPPGRRANAPPTPLPMHSSKAPAYNREKPLPPTPGQRLHPGREGPPAPPPVKPPPSPVNIRTGPSGQSLAPPPPPYRQPPGVPNGPSSPTNESAPELPQRHNSLHRKTPGPVRGLAPPPPTSASPSLLSNRPPPPARDPPSRGAAPPPPPPVIRNGARDAPPPPPPYRMHGSEPPSRGKPPPPPSRTPAGPPPPPPPPLRNGHRDSITTVRSFLDDFESKYSFHPVEDFPAPEEYKHFQRIYPSKTNRAARGAPPLPPILR [WIPF2] | 1.2 | -0.764
5 | MPNFSGNWKIIRSENFEELLKVLGVNVMLRKIAVAAASKPAVEIKQEGDTFYIKTSTTVRTTEINFKVGEEFEEQTVDGRPCKSLVKWESENKMVCEQKLLKGEGPKTSWTRELTNDGELILTMTADDVVCTRVYVRE [CRABP2] | -0.109 | -0.0816
6 | MPPKKDVPVKKPAGPSISKPAAKPAAAGAPPAKTKAEPAVPQAPQKTQEPPVDLSKVVIEFNKDQLEEFKEAFELFDRVGDGKILYSQCGDVMRALGQNPTNAEVLKVLGNPKSDELKSRRVDFETFLPMLQAVAKNRGQGTYEDYLEGFRVFDKEGNGKVMGAELRHVLTTLGEKMTEEEVETVLAGHEDSNGCINYEAFLKHILSV [MYL6B] | 0.317 | -0.063
7 | MPPLKSPAAFHEQRRSLERARTEDYLKRKIRSRPERSELVRMHILEETSAEPSLQAKQLKLKRARLADDLNEKIAQRPGPMELVEKNILPVESSLKEAIIVGQVNYPKVADSSSFDEDSSDALSPEQPASHESQGSVPSPLEARVSEPLLSATSASPTQVVSQLPMGRDSREMLFLAEQPPLPPPPLLPPSLTNGTTIPTAKSTPTLIKQSQPKSASEKSQRSKKAKELKPKVKKLKYHQYIPPDQKQDRGAPPMDSSYAKILQQQQLFLQLQILNQQQQQHHNYQAILPAPPKSAGEALGSSGTPPVRSLSTTNSSSSSGAPGPCGLARQNSTSLTGKPGALPANLDDMKVAELKQELKLRSLPVSGTKTELIERLRAYQDQISPVPGAPKAPAATSILHKAGEVVVAFPAARLSTGPALVAAGLAPAEVVVATVASSGVVKFGSTGSTPPVSPTPSERSLLSTGDENSTPGDTFGEMVTSPLTQLTLQASPLQILVKEEGPRAGSCCLSPGGRAELEGRDKDQMLQEKDKQIEALTRMLRQKQQLVERLKLQLEQEKRAQQPAPAPAPLGTPVKQENSFSSCQLSQQPLGPAHPFNPSLAAPATNHIDPCAVAPGPPSVVVKQEALQPEPEPVPAPQLLLGPQGPSLIKGVAPPTLITDSTGTHLVLTVTNKNADSPGLSSGSPQQPSSQPGSPAPAPSAQMDLEHPLQPLFGTPTSLLKKEPPGYEEAMSQQPKQQENGSSSQQMDDLFDILIQSGEISADFKEPPSLPGKEKPSPKTVCGSPLAAQPSPSAELPQAAPPPPGSPSLPGRLEDFLESSTGLPLLTSGHDGPEPLSLIDDLHSQMLSSTAILDHPPSPMDTSELHFVPEPSSTMGLDLADGHLDSMDWLELSSGGPVLSLAPLSTTAPSLFSTDFLDGHDLQLHWDSCL [MKL1] | -0.244 | 0.297
8 | MPRCPAGAMDEGPVDLRTRPKAAGLPGAALPLRKRPLRAPSPEPAAPRGAAGLVVPLDPLRGGCDLPAVPGPPHGLARPEALYYPGALLPLYPTRAMGSPFPLVNLPTPLYPMMCPMEHPLSADIAMATRADEDGDTPLHIAVVQGNLPAVHRLVNLFQQGGRELDIYNNLRQTPLHLAVITTLPSVVRLLVTAGASPMALDRHGQTAAHLACEHRSPTCLRALLDSAAPGTLDLEARNYDGLTALHVAVNTECQETVQLLLERGADIDAVDIKSGRSPLIHAVENNSLSMVQLLLQHGANVNAQMYSGSSALHSASGRGLLPLVRTLVRSGADSSLKNCHNDTPLMVARSRRVIDILRGKATRPASTSQPDPSPDRSANTSPESSSRLSSNGLLSASPSSSPSQSPPRDPPGFPMAPPNFFLPSPSPPAFLPFAGVLRGPGRPVPPSPAPGGS [BCL3] | -0.154 | 0.0652
9 | MPTWGARPASPDRFAVSAEAENKVREQQPHVERIFSVGVSVLPKDCPDNPHIWLQLEGPKENASRAKEYLKGLCSPELQDEIHYPPKLHCIFLGAQGFFLDCLAWSTSAHLVPRAPGSLMISGLTEAFVMAQSRVEELAERLSWDFTPGPSSGASQCTGVLRDFSALLQSPGDAHREALLQLPLAVQEELLSLVQEASSGQGPGALASWEGRSSALLGAQCQGVRAPPSDGRESLDTGSMGPGDCRGARGDTYAVEKEGGKQGGPREMDWGWKELPGEEAWEREVALRPQSVGGGARESAPLKGKALGKEEIALGGGGFCVHREPPGAHGSCHRAAQSRGASLLQRLHNGNASPPRVPSPPPAPEPPWHCGDRGDCGDRGDVGDRGDKQQGMARGRGPQWKRGARGGNLVTGTQRFKEALQDPFTLCLANVPGQPDLRHIVIDGSNVAMVHGLQHYFSSRGIAIAVQYFWDRGHRDITVFVPQWRFSKDAKVRESHFLQKLYSLSLLSLTPSRVMDGKRISSYDDRFMVKLAEETDGIIVSNDQFRDLAEESEKWMAIIRERLLPFTFVGNLFMVPDDPLGRNGPTLDEFLKKPARTQGSSKAQHPSRGFAEHGKQQQGREEEKGSGGIRKTRETERLRRQLLEVFWGQDHKVDFILQREPYCRDINQLSEALLSLNF [KHNYN] | -0.219 | 0.384
10 | MPVERMRMRPWLEEQINSNTIPGLKWLNKEKKIFQIPWMHAARHGWDVEKDAPLFRNWAIHTGKHQPGVDKPDPKTWKANFRCAMNSLPDIEEVKDKSIKKGNNAFRVYRMLPLSERPSKKGKKPKTEKEDKVKHIKQEPVESSLGLSNGVSDLSPEYAVLTSTIKNEVDSTVNIIVVGQSHLDSNIENQEIVTNPPDICQVVEVTTESDEQPVSMSELYPLQISPVSSYAESETTDSVPSDEESAEGRPHWRKRNIEGKQYLSNMGTRGSYLLPGMASFVTSNKPDLQVTIKEESNPVPYNSSWPPFQDLPLSSSMTPASSSSRPDRETRASVIKKTSDITQARVKSC [IRF2] | 0.0622 | 0.0934
11 | MPYVDRQNRICGFLDIEEHENSGKFLRRYFILDTQANCLLWYMDNPQNLAMGAGAVGALQLTYISKVSIATPKQKPKTPFCFVINALSQRYFLQANDQKDMKDWVEALNQASKITVPKGGGLPMTTEVLKSLAAPPALEKKPQVAYKTEIIGGVVVHTPISQNGGDGQEGSEPGSHTILRRSQSYIPTSGCRASTGPPLIKSGYCVKQGNVRKSWKRRFFALDDFTICYFKCEQDREPLRTIFLKDVLKTHECLVKSGDLLMRDNLFEIITSSRTFYVQADSPEDMHSWIKEIGAAVQALKCHPRETSFSRSISLTRPGSSSLSSGPNSILCRGRPPLEEKKALCKAPSVASSWQPWTPVPQAGEKLLPPGDTSEDSLFTPRPGEGSAPGVLPSSRIRHRSEPQHPKEKPFMFNLDDENIRTSDV [PLEKHA2] | -0.19 | 0.121
12 | MQAKKRYFILLSAGSCLALLFYFGGLQFRASRSHSRREEHSGRNGLHHPSPDHFWPRFPDALRPFVPWDQLENEDSSVHISPRQKRDANSSIYKGKKCRMESCFDFTLCKKNGFKVYVYPQQKGEKIAESYQNILAAIEGSRFYTSDPSQACLFVLSLDTLDRDQLSPQYVHNLRSKVQSLHLWNNGRNHLIFNLYSGTWPDYTEDVGFDIGQAMLAKASISTENFRPNFDVSIPLFSKDHPRTGGERGFLKFNTIPPLRKYMLVFKGKRYLTGIGSDTRNALYHVHNGEDVVLLTTCKHGKDWQKHKDSRCDRDNTEYEKYDYREMLHNATFCLVPRGRRLGSFRFLEALQAACVPVMLSNGWELPFSEVINWNQAAVIGDERLLLQIPSTIRSIHQDKILALRQQTQFLWEAYFSSVEKIVLTTLEIIQDRIFKHISRNSLIWNKHPGGLFVLPQYSSYLGDFPYYYANLGLKPPSKFTAVIHAVTPLVSQSQPVLKLLVAAAKSQYCAQIIVLWNCDKPLPAKHRWPATAVPVVVIEGESKVMSSRFLPYDNIITDAVLSLDEDTVLSTTEVDFAFTVWQSFPERIVGYPARSHFWDNSKERWGYTSKWTNDYSMVLTGAAIYHKYYHYLYSHYLPASLKNMVDQLANCEDILMNFLVSAVTKLPPIKVTQKKQYKETMMGQTSRASRWADPDHFAQRQSCMNTFASWFGYMPLIHSQMRLDPVLFKDQVSILRKKYRDIERL [EXT1] | -0.163 | -0.14
